Legend:
Experiment in all cases: EMSA; 1 nM Ku, 1 nM DNA, 15 min; EMSA: 1 nM Ku with 1 nM radiolabeled 30 bp DNA, 15 min, no streptavidin/UDG; buffer, salt, pH and temperature not given in the material
Conditions in all cases: protein: recombinant;recombinant, tags: C-terminal His6;, copies: 1;1, label: 3' 32P-cordycepin on strand 1, 5' overhang 3 nt (GUG) on strand 1, 5' overhang 1 nt (T) on strand 2, paired by the added 3' cordycepin
[1] = molecular target: T1, yeast Ku70 WT;yeast Ku80 WT (Saccharomyces cerevisiae;Saccharomyces …, UniProt P32807;Q04437 1-602;1-629, |)
T1 sequence 1: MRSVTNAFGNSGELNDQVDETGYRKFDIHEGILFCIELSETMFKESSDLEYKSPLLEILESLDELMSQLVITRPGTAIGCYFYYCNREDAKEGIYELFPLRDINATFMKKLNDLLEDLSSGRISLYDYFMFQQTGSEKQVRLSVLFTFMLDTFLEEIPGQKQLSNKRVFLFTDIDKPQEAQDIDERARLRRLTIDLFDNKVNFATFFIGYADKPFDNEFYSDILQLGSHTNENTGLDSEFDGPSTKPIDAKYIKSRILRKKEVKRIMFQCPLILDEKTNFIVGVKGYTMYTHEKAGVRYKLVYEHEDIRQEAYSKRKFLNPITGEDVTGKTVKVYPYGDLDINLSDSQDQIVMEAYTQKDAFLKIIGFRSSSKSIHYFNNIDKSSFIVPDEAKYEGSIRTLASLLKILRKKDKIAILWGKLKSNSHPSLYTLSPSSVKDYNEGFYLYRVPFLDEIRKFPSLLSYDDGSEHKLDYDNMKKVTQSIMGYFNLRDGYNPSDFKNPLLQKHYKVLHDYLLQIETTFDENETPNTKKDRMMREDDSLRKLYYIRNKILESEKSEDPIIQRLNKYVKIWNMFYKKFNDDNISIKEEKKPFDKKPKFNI
T1 sequence 2: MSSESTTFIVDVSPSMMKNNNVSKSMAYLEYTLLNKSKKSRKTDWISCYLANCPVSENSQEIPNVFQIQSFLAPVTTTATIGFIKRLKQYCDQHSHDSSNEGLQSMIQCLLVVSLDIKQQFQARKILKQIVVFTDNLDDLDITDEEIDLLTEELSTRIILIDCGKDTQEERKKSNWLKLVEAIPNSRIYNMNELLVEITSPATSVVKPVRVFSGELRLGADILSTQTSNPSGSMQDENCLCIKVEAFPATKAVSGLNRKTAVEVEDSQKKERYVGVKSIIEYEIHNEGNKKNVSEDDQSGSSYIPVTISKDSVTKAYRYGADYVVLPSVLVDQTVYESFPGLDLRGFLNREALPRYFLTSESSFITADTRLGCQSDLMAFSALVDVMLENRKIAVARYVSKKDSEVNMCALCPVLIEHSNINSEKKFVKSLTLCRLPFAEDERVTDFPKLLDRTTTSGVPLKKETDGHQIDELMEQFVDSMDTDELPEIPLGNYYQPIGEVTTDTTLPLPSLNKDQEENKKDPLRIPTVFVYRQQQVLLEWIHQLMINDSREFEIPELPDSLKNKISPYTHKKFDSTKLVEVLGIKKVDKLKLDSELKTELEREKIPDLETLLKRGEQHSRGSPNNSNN

[2] = molecular target: T2, yeast Ku70 2A;yeast Ku80 WT (Saccharomyces cerevisiae;Saccharomyces …, UniProt P32807;Q04437 1-602;1-629, K25A;K161A|)
T2 sequence 1: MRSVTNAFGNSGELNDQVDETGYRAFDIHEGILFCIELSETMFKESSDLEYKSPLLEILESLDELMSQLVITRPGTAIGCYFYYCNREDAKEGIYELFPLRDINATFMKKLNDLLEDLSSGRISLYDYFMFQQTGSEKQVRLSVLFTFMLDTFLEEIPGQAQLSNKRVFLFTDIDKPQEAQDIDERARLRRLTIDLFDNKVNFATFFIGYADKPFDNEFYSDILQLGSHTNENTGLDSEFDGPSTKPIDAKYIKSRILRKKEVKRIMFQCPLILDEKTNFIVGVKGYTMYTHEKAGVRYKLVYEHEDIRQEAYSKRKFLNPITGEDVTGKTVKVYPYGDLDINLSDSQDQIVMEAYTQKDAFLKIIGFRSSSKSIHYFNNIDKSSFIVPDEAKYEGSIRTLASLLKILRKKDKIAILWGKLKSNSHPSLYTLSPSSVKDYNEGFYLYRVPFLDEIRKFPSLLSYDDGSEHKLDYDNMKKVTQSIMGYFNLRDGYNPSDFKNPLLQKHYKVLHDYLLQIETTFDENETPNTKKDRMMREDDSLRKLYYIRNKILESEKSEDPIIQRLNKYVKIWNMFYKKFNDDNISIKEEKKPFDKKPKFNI
T2 sequence 2: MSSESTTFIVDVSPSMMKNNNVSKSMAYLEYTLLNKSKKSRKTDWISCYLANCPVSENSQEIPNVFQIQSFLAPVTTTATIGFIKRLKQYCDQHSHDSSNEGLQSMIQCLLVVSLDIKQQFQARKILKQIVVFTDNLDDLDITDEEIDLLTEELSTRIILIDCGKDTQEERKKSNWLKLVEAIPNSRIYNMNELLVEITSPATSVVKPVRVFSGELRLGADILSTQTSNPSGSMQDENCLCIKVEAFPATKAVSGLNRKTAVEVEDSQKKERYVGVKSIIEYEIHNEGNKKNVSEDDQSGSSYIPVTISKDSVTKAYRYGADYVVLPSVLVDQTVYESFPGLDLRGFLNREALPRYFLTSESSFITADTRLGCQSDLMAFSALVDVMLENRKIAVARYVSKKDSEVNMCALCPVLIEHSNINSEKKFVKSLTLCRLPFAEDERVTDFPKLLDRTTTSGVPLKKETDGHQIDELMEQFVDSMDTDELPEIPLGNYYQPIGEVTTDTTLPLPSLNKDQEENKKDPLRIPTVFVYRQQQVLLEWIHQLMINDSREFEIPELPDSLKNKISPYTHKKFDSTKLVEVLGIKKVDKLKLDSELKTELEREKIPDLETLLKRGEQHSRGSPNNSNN

[3] = molecular target: T3, Xenopus Ku70 WT;Xenopus Ku80 WT (Xenopus laevis;Xenopus laevis, UniProt Q9W626;Q6DDS9 1-611;1-726, |)
T3 sequence 1: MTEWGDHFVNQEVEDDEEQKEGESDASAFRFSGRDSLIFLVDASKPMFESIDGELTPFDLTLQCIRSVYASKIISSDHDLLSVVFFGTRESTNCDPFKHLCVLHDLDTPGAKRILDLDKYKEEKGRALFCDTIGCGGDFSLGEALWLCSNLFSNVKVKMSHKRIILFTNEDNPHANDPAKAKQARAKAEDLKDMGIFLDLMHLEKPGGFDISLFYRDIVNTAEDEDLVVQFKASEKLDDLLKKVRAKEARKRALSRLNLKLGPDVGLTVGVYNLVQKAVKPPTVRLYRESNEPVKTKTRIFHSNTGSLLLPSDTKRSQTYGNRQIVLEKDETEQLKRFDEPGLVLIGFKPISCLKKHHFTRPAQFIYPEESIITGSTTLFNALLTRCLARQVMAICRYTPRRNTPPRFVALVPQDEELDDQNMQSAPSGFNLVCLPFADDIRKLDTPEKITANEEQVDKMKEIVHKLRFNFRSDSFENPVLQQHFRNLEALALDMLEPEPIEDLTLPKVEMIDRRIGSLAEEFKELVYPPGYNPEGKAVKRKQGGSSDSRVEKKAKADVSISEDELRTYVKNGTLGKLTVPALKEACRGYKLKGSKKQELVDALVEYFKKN
T3 sequence 2: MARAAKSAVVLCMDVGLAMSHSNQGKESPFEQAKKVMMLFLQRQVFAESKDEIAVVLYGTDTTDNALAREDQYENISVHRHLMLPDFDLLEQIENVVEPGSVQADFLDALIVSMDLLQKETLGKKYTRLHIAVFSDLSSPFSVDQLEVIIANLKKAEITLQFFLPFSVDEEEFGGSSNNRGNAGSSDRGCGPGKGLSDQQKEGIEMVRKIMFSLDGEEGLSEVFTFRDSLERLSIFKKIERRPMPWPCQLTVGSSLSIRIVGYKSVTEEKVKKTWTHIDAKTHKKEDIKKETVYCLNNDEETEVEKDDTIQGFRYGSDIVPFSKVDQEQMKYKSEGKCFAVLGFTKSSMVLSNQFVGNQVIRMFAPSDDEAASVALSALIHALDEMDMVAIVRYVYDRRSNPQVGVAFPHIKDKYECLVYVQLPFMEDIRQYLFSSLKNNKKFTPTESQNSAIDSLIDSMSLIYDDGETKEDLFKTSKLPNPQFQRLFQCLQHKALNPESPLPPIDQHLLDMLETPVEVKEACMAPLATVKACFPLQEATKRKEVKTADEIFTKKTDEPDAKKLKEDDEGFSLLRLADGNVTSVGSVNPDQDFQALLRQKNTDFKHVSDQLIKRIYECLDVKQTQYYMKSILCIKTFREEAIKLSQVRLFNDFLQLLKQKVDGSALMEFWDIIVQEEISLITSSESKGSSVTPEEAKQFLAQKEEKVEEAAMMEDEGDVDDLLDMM

Measured: binding result

B1: 30 bp EMSA substrate (dsDNA)
DNA 1: GUGGAAATCAAACGTAAGTAGAATCCAAAGTCT
DNA 2: TAGACTTTGGATTCTACTTACGTTTGATTTC
modifications: deoxyuridine at position 2 of strand 1 (no UDG treatment for EMSA); 5' phosphate on strand 1; 5' biotin-TEG on strand 2
binds: all assays above

Source: article PMC4176175, “Requirements for 5′dRP/AP lyase activity in Ku”
